# Positions count from the first letter of the chain named.
# B1: VHH 00903 (VHH, not shown: small tags and cut ends)
# VHH: EVQLVESGGGLVQPGGSLRLSCAASGFTLDDYAIGWFRQAPGKEREGVSSIRDNGGSTYYADSVKGRFTISSDNSKNTVYLQMNSLRPEDTAVYYCAAVPAGRLRFGEQWYPIYEYDAWGQGTLVTVSS
# B2: VHH 00913 (VHH, not shown: small tags and cut ends)
# VHH: B1 VHH with F27L, L29I
# B3: VHH 00912 (VHH, not shown: small tags and cut ends)
# VHH: B1 VHH with F27L, F106Y
# B4: VHH 00910 (VHH, not shown: small tags and cut ends)
# VHH: B1 VHH with F27I, L29I, F106Y
# B5: VHH 00911 (VHH, not shown: small tags and cut ends)
# VHH: B1 VHH with F27L
# B6: VHH 00906 (VHH, not shown: small tags and cut ends)
# VHH: B1 VHH with L29I, F106Y
# B7: VHH 00904 (VHH, not shown: small tags and cut ends)
# VHH: B1 VHH with F106Y
# B8: VHH 00914 (VHH, not shown: small tags and cut ends)
# VHH: B1 VHH with F27L, L29I, F106Y
# B9: VHH 00905 (VHH, not shown: small tags and cut ends)
# VHH: B1 VHH with L29I
# B10: VHH 00909 (VHH, not shown: small tags and cut ends)
# VHH: B1 VHH with F27I, L29I
# B11: VHH 00907 (VHH, not shown: small tags and cut ends)
# VHH: B1 VHH with F27I
# B12: VHH 00044 (VHH, not shown: small tags and cut ends)
# VHH: EVQLVESGGGLVQPGGSLRLSCAASGFALDYYAIGWFRQAPGKEREGVSCISSSDGITYYVDSVKGRFTISRDNSKNTVYLQMNSLRPEDTAVYYCATDSGGYIDYDCMGLGYDYWGQGTLVTVSS
# B13: VHH 00920 (VHH, not shown: small tags and cut ends)
# VHH: B12 VHH with D55G, V61A
# B14: VHH 00046 (VHH, not shown: small tags and cut ends)
# VHH: B12 VHH with D55G
# B15: VHH 00045 (VHH, not shown: small tags and cut ends)
# VHH: B12 VHH with V61A
# B16: VHH 00924 (VHH, not shown: small tags and cut ends)
# VHH: B12 VHH with E1D, D55G, V61A
# B17: VHH 00039 (VHH, not shown: small tags and cut ends)
# VHH: EVQLVESGGGLVQPGGSLRLSCAASGFTFDDYALGWFRQAAGKEREGVSCIRCSDGSTYYADSVKGRFTISRDNSKNTVYLQMNSLRPEDTAVYYCAASIVPRSKLEPYEYDAWGQGTLVTVSS
# B18: VHH 00925 (VHH, not shown: small tags and cut ends)
# VHH: B17 VHH with E1D, A41P, D55G, R72S
# B19: VHH 00921 (VHH, not shown: small tags and cut ends)
# VHH: B17 VHH with A41P, D55G, R72S
# B20: VHH 00051 (VHH, not shown: small tags and cut ends)
# VHH: B17 VHH with D55G, R72S
# B21: VHH 00049 (VHH, not shown: small tags and cut ends)
# VHH: B17 VHH with R72S
# B22: VHH 00040 (VHH, not shown: small tags and cut ends)
# VHH: B17 VHH with A41P
# B23: VHH 00050 (VHH, not shown: small tags and cut ends)
# VHH: B17 VHH with A41P, R72S
# Biological target: FLAG-tagged human Ang2 (human) (UniProt O15123)
# Assay: competition ELISA: FLAG-hAng2 binding to coated hTie2-Fc
# Chain of FLAG-tagged human Ang2 (human) (O15123 19-496): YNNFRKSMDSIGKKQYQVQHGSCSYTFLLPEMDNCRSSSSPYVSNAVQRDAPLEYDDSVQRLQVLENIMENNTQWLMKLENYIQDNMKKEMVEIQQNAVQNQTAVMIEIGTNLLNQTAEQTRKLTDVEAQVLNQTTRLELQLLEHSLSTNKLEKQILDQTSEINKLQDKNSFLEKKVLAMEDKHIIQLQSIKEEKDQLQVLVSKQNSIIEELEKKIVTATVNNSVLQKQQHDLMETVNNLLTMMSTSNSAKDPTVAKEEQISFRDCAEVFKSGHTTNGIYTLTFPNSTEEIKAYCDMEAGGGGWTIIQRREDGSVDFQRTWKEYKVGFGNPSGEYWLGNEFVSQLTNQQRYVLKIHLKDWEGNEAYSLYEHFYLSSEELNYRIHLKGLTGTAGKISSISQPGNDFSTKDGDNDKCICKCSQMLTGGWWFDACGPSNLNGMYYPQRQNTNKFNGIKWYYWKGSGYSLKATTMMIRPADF
row,IC50 [nM],Binder
1,0.089,B1
2,0.042,B2
3,0.062,B3
4,0.042,B4
5,0.059,B5
6,0.045,B6
7,0.062,B7
8,0.037,B8
9,0.079,B9
10,0.053,B10
11,0.062,B11
12,0.069,B12
13,0.13,B13
14,0.095,B14
15,0.12,B15
16,0.11,B16
17,11.9,B17
18,22.1,B18
19,30.4,B19
20,16.1,B20
21,6.9,B21
22,6.4,B22
23,6,B23
